Test results as given in patent US20200172620A1.

Experiments:
[1] = target: human CD8 (as used in SPR) (human) (UniProt P01732); assay: SPR
[2] = target: human CD8 on cells (FACS) (human) (UniProt P01732); assay: FACS
Sequence of human CD8 on cells (FACS) (human) (P01732 22-235): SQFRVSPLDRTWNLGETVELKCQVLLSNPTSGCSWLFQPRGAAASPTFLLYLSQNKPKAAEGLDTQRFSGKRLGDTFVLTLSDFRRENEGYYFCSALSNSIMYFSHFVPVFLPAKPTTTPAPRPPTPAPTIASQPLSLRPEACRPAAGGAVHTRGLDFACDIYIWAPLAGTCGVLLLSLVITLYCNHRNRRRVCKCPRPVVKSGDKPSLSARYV

Sequence of human CD8 (as used in SPR) (human) (P01732 22-182): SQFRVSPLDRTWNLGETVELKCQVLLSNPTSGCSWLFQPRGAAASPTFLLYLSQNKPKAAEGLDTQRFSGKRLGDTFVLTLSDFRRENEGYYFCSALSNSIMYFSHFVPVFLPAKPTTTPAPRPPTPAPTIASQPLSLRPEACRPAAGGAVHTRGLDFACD

Kd [1]: 13 nM
Ratio of KD huOKT8.v1/KD variant for binding to huCD8 [1]: 1 X
Kd [2]: 20 nM
B1: OKT8 (antibody, from another filing, V domains shown)
VH: EVQLQQSGAELVKPGASVKLSCTASGFNIKDTYIHFVRQRPEQGLEWIGRIDPANDNTLYASKFQGKATITADTSSNTAYMHLCSLTSGDTAVYYCGRGYGYYVFDHWGQGTTLTVSS
VL: DVQINQSPSFLAASPGETITINCRTSRSISQYLAWYQEKPGKTNKLLIYSGSTLQSGIPSRFSGSGSGTDFTLTISGLEPEDFAMYYCQQHNENPLTFGAGTKLELK
